Results reported in PMC3898768, “The TBC/RabGAP Armus Coordinates Rac1 and Rab7 Functions during Autophagy” (Developmental Cell, 2013).
Changes are numbered by the printed parent chain. Names may count otherwise. Values belong to the binder of their own block, whether it stands above or below them.

How the values were obtained:
[1] = target: T1, cleaved active Rac1 (Rac^Q61L) (UniProt P63000 1-192, Q61L); assay: pull-down; purified proteins: GST-Armus 1-550 incubated with cleaved Rac Q61L with or without increasing amounts of MBP-LC3 (molar ratios shown in the figure); probed for Rac1 or LC3; details: both partners purified
[2] = target: T1, cleaved active Rac1 (Rac^Q61L); assay: pull-down; purified proteins: GST fusion protein (GST-LC3, or GST-Armus 1-550 wild-type or mutants) incubated with cleaved Rac Q61L; probed for Rac1; details: both partners purified

binding result [1]: binds
B1: GST-Armus 1-550 wild-type (domain or fragment)
chain: MEGAGENAPESSSSAPGSEESARDPQVPPPEEESGDCARSLEAVPKKLCGYLSKFGGKGPIRGWKSRWFFYDERKCQLYYSRTAQDANPLDSIDLSSAVFDCKADAEEGIFEIKTPSRVITLKAATKQAMLYWLQQLQMKRWEFHNSPPAPPATPDAALAGNGPVLHLELGQEEAELEEFLCPVKTPPGLVGVAAALQPFPALQNISLKHLGTEIQNTMHNIRGNKQAQGTGHEPPGEDSPQSGEPQREEQPLASDASTPGREPEDSPKPAPKPSLTISFAQKAKRQNNTFPFFSEGITRNRTAQEKVAALEQQVLMLTKELKSQKELVKILHKALEAAQQEKRASSAYLAAAEDKDRLELVRHKVRQIAELGRRVEALEQERESLAHTASLREQQVQELQQHVQLLMDKNHAKQQVICKLSEKVTQDFTHPPDQSPLRPDAANRDFLSQQGKIEHLKDDMEAYRTQNCFLNSEIHQVTKIWRKVAEKEKALLTKCAYLQARNCQVESKYLAGLRRLQEALGDEASECSELLRQLVQEALQWEAGEASSD
notes: Armus (TBC1D2A, isoform 1; UniProt Q9BYX2-1), residues 1-550; also called GST-Armus_(1–550) wild-type (WT); source: 'purified proteins'

binding result [2]: binds
B2: GST-Armus 1-550 W142A,Y510A (domain or fragment)
chain: B1 chain with W142A, Y510A
notes: Armus (TBC1D2A, isoform 1; UniProt Q9BYX2-1), residues 1-550, double point mutant; also called Armus^W142A,Y510A; source: 'purified proteins'
